1 molecule from paper PMC3292258 (Nature, 2012) can be followed below.

The target of this test is T1, MBP-YDA (Arabidopsis, UniProt Q9CAD5 1-883).
T1 sequence (looked up): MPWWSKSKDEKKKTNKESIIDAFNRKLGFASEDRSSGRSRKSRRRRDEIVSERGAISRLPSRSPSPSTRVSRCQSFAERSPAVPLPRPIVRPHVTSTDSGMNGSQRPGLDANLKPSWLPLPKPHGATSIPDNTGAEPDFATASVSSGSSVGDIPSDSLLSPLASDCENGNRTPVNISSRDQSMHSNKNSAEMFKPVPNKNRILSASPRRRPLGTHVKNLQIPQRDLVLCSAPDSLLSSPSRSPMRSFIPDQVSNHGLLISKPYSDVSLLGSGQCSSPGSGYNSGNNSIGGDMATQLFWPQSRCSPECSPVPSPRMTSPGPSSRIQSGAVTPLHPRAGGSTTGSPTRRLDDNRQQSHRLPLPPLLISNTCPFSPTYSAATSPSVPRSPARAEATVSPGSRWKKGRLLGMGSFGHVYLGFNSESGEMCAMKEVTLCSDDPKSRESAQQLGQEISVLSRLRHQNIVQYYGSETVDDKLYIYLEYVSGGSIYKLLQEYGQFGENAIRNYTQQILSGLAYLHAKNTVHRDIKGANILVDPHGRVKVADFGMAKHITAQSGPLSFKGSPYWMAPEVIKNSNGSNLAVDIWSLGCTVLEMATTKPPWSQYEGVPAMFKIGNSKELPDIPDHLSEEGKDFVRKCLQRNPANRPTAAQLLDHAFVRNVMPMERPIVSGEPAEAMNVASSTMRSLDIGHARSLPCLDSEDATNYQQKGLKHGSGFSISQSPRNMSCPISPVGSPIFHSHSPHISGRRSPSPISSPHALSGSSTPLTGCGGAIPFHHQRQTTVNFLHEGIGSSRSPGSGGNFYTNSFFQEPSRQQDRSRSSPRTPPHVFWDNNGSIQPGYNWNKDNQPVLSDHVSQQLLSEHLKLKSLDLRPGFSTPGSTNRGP
Nature of the test: far-Western, overlay or dot blot.

B1: GST-BIN2 (enzyme, Arabidopsis, UniProt Q39011 1-380, looked up)
chain: MADDKEMPAAVVDGHDQVTGHIISTTIGGKNGEPKQTISYMAERVVGTGSFGIVFQAKCLETGETVAIKKVLQDRRYKNRELQLMRVMDHPNVVCLKHCFFSTTSKDELFLNLVMEYVPESLYRVLKHYSSANQRMPLVYVKLYMYQIFRGLAYIHNVAGVCHRDLKPQNLLVDPLTHQVKICDFGSAKQLVKGEANISYICSRFYRAPELIFGATEYTTSIDIWSAGCVLAELLLGQPLFPGENAVDQLVEIIKVLGTPTREEIRCMNPHYTDFRFPQIKAHPWHKIFHKRMPPEAIDFASRLLQYSPSLRCTALEACAHPFFDELREPNARLPNGRPFPPLFNFKQEVAGSSPELVNKLIPDHIKRQLGLSFLNQSGT
Regarding B1, the binding result is listed as “binds”.
